Assays:
[1] = target: extracellular region of human F158 FcγRIIIa with C-terminal 6x His-tag and GST-tag (human) (UniProt P08637); assay: SPR, receptor immobilized, antibody flowed
[2] = target: extracellular region of human V158 FcγRIIIa with C-terminal 6x His-tag and GST-tag (human) (UniProt P08637); assay: SPR, His-tagged receptor immobilized, antibody flowed
[3] = target: extracellular region of human V158 FcγRIIIa with C-terminal 6x His-tag and GST-tag (human) (UniProt P08637); assay: SPR
[4] = target: FcγRIIIa on human PBMCs expressing heterozygous V158/F158 FcγRIIIa (human) (UniProt P08637); assay: cell-based or functional assay

Chain of extracellular region of human F158 FcγRIIIa with C-terminal 6x His-tag and GST-tag (human) (P08637 17-208, chain 1 of 2): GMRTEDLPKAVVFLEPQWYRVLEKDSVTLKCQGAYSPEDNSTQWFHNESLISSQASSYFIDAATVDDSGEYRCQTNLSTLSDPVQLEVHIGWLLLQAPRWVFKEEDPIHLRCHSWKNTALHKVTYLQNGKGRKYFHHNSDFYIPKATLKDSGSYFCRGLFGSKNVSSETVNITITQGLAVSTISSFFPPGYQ
Chain of extracellular region of human F158 FcγRIIIa with C-terminal 6x His-tag and GST-tag (human) (P08515 whole entry, chain 2 of 2, further chain): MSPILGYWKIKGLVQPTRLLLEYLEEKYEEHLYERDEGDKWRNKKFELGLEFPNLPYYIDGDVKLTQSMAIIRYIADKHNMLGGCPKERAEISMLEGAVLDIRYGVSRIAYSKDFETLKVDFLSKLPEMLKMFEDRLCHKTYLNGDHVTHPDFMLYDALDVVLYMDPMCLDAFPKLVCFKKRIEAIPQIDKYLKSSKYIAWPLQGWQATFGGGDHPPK
Chain of extracellular region of human V158 FcγRIIIa with C-terminal 6x His-tag and GST-tag (human) (P08637 17-208 F176V, chain 1 of 2): as the sequence (P08637 17-208, chain 1 of 2) above, with F160V counted along it
Chain of extracellular region of human V158 FcγRIIIa with C-terminal 6x His-tag and GST-tag (human) (P08515 whole entry, chain 2 of 2, further chain): as the sequence (P08515 whole entry, chain 2 of 2, further chain) above

| Substance | Kd [1] [nM] | Kd [2] [nM] | Fold WT V158 FcγRIIIa [3] [fold] | also measured |
| --- | --- | --- | --- | --- |
| S298A/E333A/K334A alemtuzumab (antibody) | 156 | 39 | – | – |
| I332E alemtuzumab (antibody) | 72 | 31 | – | – |
| S298A alemtuzumab (antibody) | 285 | 52 | – | – |
| E283H alemtuzumab (antibody) | – | – | 2.31 | – |
| V264I alemtuzumab (antibody) | 550 | 64 | – | – |
| S239D/I332E alemtuzumab (antibody) | – | – | – | ADCC, DoHH-2 target cells: EC50 [4]: 3 ng/mL; ADCC, DoHH-2 target cells: Fold WT [4]: 3.3 fold; ADCC, DoHH-2 target cells: log (EC50) [4]: 0.49 log (ng/ml) |
| S304T alemtuzumab (antibody) | – | – | 12.8 | – |
| E272R alemtuzumab (antibody) | – | – | 1.38 | – |
| V264I/I332E alemtuzumab (antibody) | 52 | 17 | – | ADCC, DoHH-2 target cells: EC50 [4]: 4 ng/mL; ADCC, DoHH-2 target cells: log (EC50) [4]: 0.6 log (ng/ml) |
| V284E alemtuzumab (antibody) | – | – | 1.51 | – |

From patent US20070231329A1
